From patent US20190367592A1 (AC IMMUNE, published 2019) come the findings set out here.

As usually defined, the Kd is the free concentration of one partner at which half of the binding sites on the other are occupied at equilibrium, for simple one-to-one binding. One may read the koff as the first-order rate constant of dissociation. For orientation: kon means a measure of how fast the partners come together.

Positions count from the first letter of the chain named.

To fix the notation:
B1: 26C1 (antibody, mouse IgG2a, V domains shown)
VH: EVHLQQSGAELVRSGASVKLSCTASGFNIKDYYMYWVKQRPEQGLEWIGWIDPENGDTEYFPKFQGKATMTADTSSKTAYLQLSSLTSEDTAVYYCNAWRARATNSALDYWGQGTSVTVSS
VL: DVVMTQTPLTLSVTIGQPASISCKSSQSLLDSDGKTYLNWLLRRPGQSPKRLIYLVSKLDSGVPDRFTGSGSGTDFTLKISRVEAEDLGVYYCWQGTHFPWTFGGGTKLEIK
notes: recombinant murine IgG2a/kappa; label without subclone
B2: 66F5-A1 (antibody, mouse IgG2a, V domains shown)
VH: QVQLQQSGAELVRPGASVTLSCKASGYTFIDYEMNWVKQTPVHGLEWIGAIDPENGGTAYNQKFKGKAIVTADKSSSTAYMELRSLTSEDSAVYYCSGPHFDYWGQGTTLTVSS
VL: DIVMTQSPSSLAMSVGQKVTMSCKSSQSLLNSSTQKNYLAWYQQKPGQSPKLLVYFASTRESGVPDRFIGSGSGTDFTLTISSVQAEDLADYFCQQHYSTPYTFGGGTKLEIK
B3: 11E10-B8 (antibody, mouse IgG2a, V domains shown)
VH: EVQLVESGGDLVKPGGSLKLSCAASGFTFRSYGMSWVRQTPDKRLEWVATISGGGSYTYYPDSVKGRFTISRDNAKNTLYLQMSSLKSEDTAMYYCAVSYDGAMDYWGQGTSVTVSS
VL: DVLMTQTPLSLPVSLGDQASISCRSSQSIVHSNGNTYLEWYLQKPGQSPKLLIYKVSNRFSGVPDRFSGSGSGTDFTLKISRVEAEDLGLYYCFQGSHVPWTFGGGTKLEIK
B4: 30G1-B2 (antibody, mouse IgG2a, V domains shown)
VH: QVQLQQSGAELVRPGASVTLSCKASGYTFTDYEMYWVKQTPVHGLEWIGAIDPETGDTAYNQKFKGKATLTADKSSNTAYMELRSLTSEDSAVYYCIRQYGNWFPYWGQGTLVTVSA
VL: DVVMTQTPLSLPVSLGDQASISCRSSQSLVHANGNTYLHWFLQKPGLSPKLLIYKVSNRFSGVPDRFSGGGSGTDFTLKITRLEAEDLGVYFCSQSTHVPFTFGSGTKLEIK
B5: hu37D3.v29.13 (antibody, V domains shown)
VH: EVQLVESGGGLVQPGGSLRLSCAASGLIFRSYGMSWVRQAPGKGLEWVATINSGGTYTYYPDSVKGRFTISRDNSKNTLYLQMNSLRAEDTAVYYCANSYSGAMDYWGQGTLVTVSS
VL: EDVLTQTPLSLPVTPGQPASISCRSSQSIVHSNAKTYFEWYLQKPGQSPQLLIYKVSNRFSGVPDRFSGSGSGTDFTLKISRVEAEDVGVYYCFQGSLVPWTFGQGTKVEIK
B6: hu37D3.v28.A24 (antibody, V domains shown)
VH: B5 VH
VL: B5 VL with E1D, D2V, L4M, A34G, K35N
B7: hu37D3.v28.A10 (antibody, V domains shown)
VH: B5 VH
VL: B5 VL with E1D, L4M, A34G, K35N, L98H
B8: hu37D3.v28.A14 (antibody, V domains shown)
VH: B5 VH
VL: B5 VL with E1D, L4M, A34G, K35N, F38L, L98H
B9: hu37D3.v28.A20 (antibody, V domains shown)
VH: B5 VH
VL: B5 VL with E1D, D2V, A34G, K35N, F38L
B10: hu37D3-H9.v30.5 (antibody, V domains shown)
VH: B5 VH
VL: B5 VL with E1D, N33I, A34G, K35N
B11: hu37D3.v28.A22 (antibody, V domains shown)
VH: B5 VH
VL: B5 VL with E1D, D2V, A34G, K35N, F38L, L98H
B12: hu37D3.v28.A18 (antibody, V domains shown)
VH: B5 VH
VL: B5 VL with E1D, D2V, A34G, K35N, L98H
B13: hu37D3.v28.A28 (antibody, V domains shown)
VH: B5 VH
VL: B5 VL with E1D, D2V, L4M, A34G, K35N, F38L
B14: hu37D3.v28.A26 (antibody, V domains shown)
VH: B5 VH
VL: B5 VL with E1D, D2V, L4M, A34G, K35N, L98H
B15: hu37D3.v28.A8 (antibody, V domains shown)
VH: B5 VH
VL: B5 VL with E1D, L4M, A34G, K35N
B16: hu37D3.v28.A16 (antibody, V domains shown)
VH: B5 VH
VL: B5 VL with E1D, D2V, A34G, K35N
B17: hu37D3-H9.v5.1 (antibody, V domains shown)
VH: B5 VH
VL: B5 VL with K35N
B18: hu37D3-H9.v30.10 (antibody, V domains shown)
VH: B5 VH
VL: B5 VL with E1D, N33K, A34G, K35N
B19: hu37D3-H9.v30.11 (antibody, V domains shown)
VH: B5 VH
VL: B5 VL with E1D, N33R, A34G, K35N
B20: hu37D3.v29.14 (antibody, V domains shown)
VH: B5 VH
VL: B5 VL with K35L

In one assay the target is T1, recombinant human Tau monomer, 2N4R isoform (amino acids 2-441) (human, UniProt P10636-8 2-441).
T1 construct: range 2-441; N-terminal His-tag removed with TEV protease; also called monomeric Tau
T1 sequence (P10636 other isoform, or with tags, fused parts or gaps limits assumed): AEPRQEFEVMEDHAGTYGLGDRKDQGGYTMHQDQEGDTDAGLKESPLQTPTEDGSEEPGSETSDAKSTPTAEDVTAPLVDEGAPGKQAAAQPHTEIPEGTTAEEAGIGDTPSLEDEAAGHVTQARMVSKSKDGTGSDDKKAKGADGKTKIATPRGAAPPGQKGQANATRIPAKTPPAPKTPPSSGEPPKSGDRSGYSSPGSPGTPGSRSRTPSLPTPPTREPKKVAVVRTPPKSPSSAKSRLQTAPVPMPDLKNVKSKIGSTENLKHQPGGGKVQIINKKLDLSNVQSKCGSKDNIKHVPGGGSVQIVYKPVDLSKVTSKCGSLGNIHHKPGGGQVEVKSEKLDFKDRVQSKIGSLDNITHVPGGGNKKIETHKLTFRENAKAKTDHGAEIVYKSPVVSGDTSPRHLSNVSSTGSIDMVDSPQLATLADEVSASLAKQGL
In words: SPR, mIgG2a captured, Tau monomer analyte, 1:1 fit. From the text: Antibody heavy and light chains were constructed via gene synthesis and subcloning of the resulting DNA into murine IgG2a (heavy chain) and murine kappa (light chain) mammalian expression vectors. Antibodies were expressed in CHO or 293T cells by transient co-transfection of the heavy chain and light chain plasmids and were purified with affinity resin MabSelectSure (GE Healthcare Life Sciences). Purified recombinant antibodies were screened for binding to Tau monomer protein on a Biacore T200 surface plasmon resonance instrument using a mouse IgG capture kit and a Series S CM5 chip. Antibodies in mIgG2a format diluted in 10 mM HEPES pH7.4, 150 mM NaCl, 0.05% Tween 20 (running buffer, HBSP) were captured for 30 or 45 seconds at a concentration of 1 μg/ml (antibodies 26C1, 94B2-C1, 52F6-F11.v1, 52F6-F11.v2, 11E10-B8, 55E7-F11, 125B1-H3, 123E9-A1, 30G1-B2, 66F5-A1, 89F4-A1, 93A8-D2 and 126F11-G11) or for 70 or 150 seconds at a concentration of 0.1 μg/ml (antibodies 19H6-F7, 3A4-H4, 54C1-H11 and 37D3-H9) using a flow rate of 10 μl/min. […] Association and dissociation times were monitored for 180-480 seconds and for 300-600 seconds respectively. Antibody 37D3-H9 was selected for further analysis due to the high affinity (Table 6) and the absence of NXS/T glycosylation motifs in the CDRs.
In the case of B1, the Kd came out at 17 nM, the koff came out at 0.0007 s⁻¹ and the kon was 40000 M⁻¹ s⁻¹.

As to B2, the Kd worked out at 105 nM, the koff was 0.008 s⁻¹ and the kon amounted to 80000 M⁻¹ s⁻¹.

As to B3, the Kd was 108 nM, the koff was 0.02 s⁻¹ and the kon was determined as 200000 M⁻¹ s⁻¹.

On to B4, for which the Kd stood at 20 nM, the koff came to 0.008 s⁻¹ and the kon came out at 400000 M⁻¹ s⁻¹.

The next assay addresses T1, recombinant human Tau monomer, 2N4R …. In words: SPR, captured IgG, Tau monomer analyte, 1:1 model; fit-quality column: Yes. As for the experimental part: (§1) Briefly, IgGs in 1 mL culuture were captured using tip columns that were custom packed with 20 μL MabSelect SuRe resin (Glygen Corp & GE Healthcare). After washing with 1×PBS pH 7.4, IgGs were eluted into 160 μL of 50 mM phosphoric acid pH 3 and neutralized with 12 μL of 20×PBS pH 11. MabSelect SuRe tip columns were stripped in 0.1 M NaOH and regenerated with 1×PBS pH 7.4 for consecutive use of up to 15 times. Purified antibodies in 96-well format were normalized to 0.1 mg/ml using a Hamilton Star liquid handling robot. The “pre-stress” samples were kept at approximately 4° C. and the “post-stress” samples were incubated at 40° C. for two weeks in a PCR machine. Functional stability of the variants was compared by running surface plasmon resonance kinetics experiments with the “pre-stress” and “post-stress” antibody preps. The antibodies were assessed using a human antibody capture CM5 Series S chip generated using the GE Biacore human IgG capture kit and a Biacore T200 instrument. Antibodies diluted to 2 μg/ml were immobilized using a 15 second injection time and 10 μl/min flow rate. Binding to Tau monomer at 0 nM, 26.5 nM and 265 nM, at 25° C., using a flow rate of 40 μl/min, was monitored for a 180 second association phase followed by a 300 second dissociation phase. Samples were run in 10 mM HEPES pH7.4, 150 mM NaCl, 0.05% Tween 20 (HBSP) using a multi-cycle kinetics format. Data was analyzed using BIAevaluation software, fitting a 1:1 binding model. The resulting affinity (KD) values are shown in FIG. 8A-D. A Stability Index was also calculated, using the rationale that affinity-compromised antibodies (due for example to deamidation of key residues) are expected to contribute equally to the IgG capture level (“Ligand Level”) but to contribute less to the measured Tau binding, and that this would be reflected in the experimentally derived value for Rmax. To account for variations in the amount of each antibody captured, Rmax was normalized for the antibody capture level (as measured by “Ligand Level”, Response Units immobilized during antibody capture). Thus Normalized Rmax is calculated as the experimental Rmax (units=RU) divided by the “Ligand Level” (Evaluation output representing the RU captured during the hIgG capture step, units=RU), and Stability Index is calculated here as Normalized Rmax (post-stress) divided by Normalized Rmax (pre-stress).
Background: Surface plasmon resonance follows binding to a sensor surface in real time, without labels.
In the case of B5, the Kd was 6.7 nM.

Take B6: the Kd was 4.7 nM.

For the molecule B7, the Kd amounted to 41.8 nM.

With B8, the Kd was 51.4 nM.

For B9, the Kd was found to be 7.1 nM.

Regarding B10, the Kd was determined as 29.1 nM.

In the case of B11, the Kd is 27.8 nM.

Take B12: the Kd is 17.3 nM.

Take B13: the Kd was 11.4 nM.

For the molecule B14, the Kd was 22.5 nM.

As to B15, the Kd came out at 1.8 nM.

For B16, the Kd worked out at 3.9 nM.

With B17, the Kd amounted to 4 nM.

B18: the Kd was found to be 16.1 nM.

For B19, the Kd was found to be 20.9 nM.

On to B20, for which the Kd was determined as 22 nM.

Another assay has the same target. As to the kind of experiment: SPR; Normalized Rmax post-stress (2 weeks 40 C) / pre-stress. As to the method: as §1
As to B5, the “Stability Index” value was found to be 79%.

As for B6, the “Stability Index” value stood at 95%.

Consider B7, for which the “Stability Index” value was found to be 37%.

Take B8: the “Stability Index” value was 70%.

In the case of B9, the “Stability Index” value was determined as 93%.

Regarding B10, the “Stability Index” value was 80%.

Turning to B11, the “Stability Index” value is 70%.

B12: the “Stability Index” value is 83%.

B13: the “Stability Index” value was 89%.

On to B14, for which the “Stability Index” value is 78%.

As to B15, the “Stability Index” value was determined as 57%.

B16: the “Stability Index” value stood at 89%.

B17: the “Stability Index” value stood at 72%.

For the molecule B18, the “Stability Index” value amounted to 84%.

Turning to B19, the “Stability Index” value was found to be 86%.

In the case of B20, the “Stability Index” value worked out at 92%.
